The target in this data set is T1, PoSP:SGSH^OPT:His.
T1 chain: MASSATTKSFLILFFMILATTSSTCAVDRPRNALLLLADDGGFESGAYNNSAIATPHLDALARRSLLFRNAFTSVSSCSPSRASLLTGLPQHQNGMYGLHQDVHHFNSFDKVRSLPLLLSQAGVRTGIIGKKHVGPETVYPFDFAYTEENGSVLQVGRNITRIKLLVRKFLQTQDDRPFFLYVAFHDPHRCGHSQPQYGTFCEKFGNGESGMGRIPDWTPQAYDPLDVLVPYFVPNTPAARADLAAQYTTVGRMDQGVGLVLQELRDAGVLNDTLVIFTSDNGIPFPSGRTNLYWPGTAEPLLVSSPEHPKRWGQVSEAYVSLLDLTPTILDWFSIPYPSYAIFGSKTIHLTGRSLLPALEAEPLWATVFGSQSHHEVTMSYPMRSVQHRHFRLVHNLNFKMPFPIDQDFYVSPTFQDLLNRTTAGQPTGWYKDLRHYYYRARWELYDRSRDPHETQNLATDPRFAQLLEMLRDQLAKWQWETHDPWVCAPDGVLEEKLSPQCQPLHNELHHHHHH

B1: PoSP:SUMF1^OPT:His:KDEL (protein)
chain: MASSATTKSFLILFFMILATTSSTCAVDSQEAGTGAGAGSLAGSCGCGTPQRPGAHGSSAAAHRYSREANAPGPVPGERQLAHSKMVPIPAGVFTMGTDDPQIKQDGEAPARRVTIDAFYMDAYEVSNTEFEKFVNSTGYLTEAEKFGDSFVFEGMLSEQVKTNIQQAVAAAPWWLPVKGANWRHPEGPDSTILHRPDHPVLHVSWNDAVAYCTWAGKRLPTEAEWEYSCRGGLHNRLFPWGNKLQPKGQHYANIWQGEFPVTNTGEDGFQGTAPVDAFPPNGYGLYNIVGNAWEWTSDWWTVHHSVEETLNPKGPPSGKDRVKKGGSYMCHRSYCYRYRCAARSQNTPDSSASNLGFRCAADRLPTMDHHHHHHKDEL
With B1, the sulfamidase enzymatic activity entry was “plant-made SGSH (S4 and S12) were enzymatically active only when SUMF1 was co-expressed”.

The values are drawn from patent publication US20220251522.
